Data: US20040115734A1 (VLAAMS INTERUNIVERSITAIR INSTITUUT VOOR BIOTECHNOLOGIE VZW, published 2004)

Key:
GST-TLN/256C = biological target: T1, GST-TLN/256C (mouse, UniProt Q60625 662-917); assay: GST pull-down from 1% Triton-X100 or 2% CHAPS mouse brain extracts, western blot
T1 construct: Immobilized on glutathione beads; not shown: glutathione S-transferase (GST) encoded by vector pGEX4T-1 (Pharmacia Biotech)
T1 sequence (looked up): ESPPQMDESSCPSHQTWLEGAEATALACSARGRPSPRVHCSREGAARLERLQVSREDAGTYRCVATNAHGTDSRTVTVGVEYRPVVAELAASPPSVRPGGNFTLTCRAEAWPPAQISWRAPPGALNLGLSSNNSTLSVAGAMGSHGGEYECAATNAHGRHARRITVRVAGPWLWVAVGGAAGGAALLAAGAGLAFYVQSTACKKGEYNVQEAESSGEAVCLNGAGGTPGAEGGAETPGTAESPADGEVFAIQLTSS
Protocol: GST alone was used as a negative control. PS1-CTF was predominantly detected in the bound fraction of low salt 1% Triton-X100 brain extracts. […] The difference between the intensity of the bands is due to different affinities of the pabs as shown for the crude extract (“Total” in first lane). Binding was largely abolished at high salt concentrations (400 mM).
Murine cortices were homogenized in 250 mM sucrose containing 10 mM Tris-HCL pH 7.4, 1 mM EDTA (De Strooper et al., 1999). Nuclei and tissue fragments were removed by low speed centrifugation. Microsomal membranes pelleted by high-speed centrifugation (50K rpm, 1 hour) were resuspended in LSB containing 1% Triton X-100 or 2% CHAPS. Aliquots (1 mg/ml) of the cleared extracts (55K rpm, 1 hour) were incubated overnight (4° C.) with immobilized GST fusion proteins. Beads were washed in low salt extraction buffer containing 0.5% Triton X-100 and bound proteins were analyzed by SDS-PAGE and western blotting.

GST alone [1] = biological target: T2, GST alone (UniProt P08515 1-218 = GST); assay: GST pull-down of in vitro translated [35S]-labeled TLN constructs, autoradiogram
T2 construct: Negative control, immobilized on glutathione beads; also called GST-beads
T2 sequence (P08515 whole entry): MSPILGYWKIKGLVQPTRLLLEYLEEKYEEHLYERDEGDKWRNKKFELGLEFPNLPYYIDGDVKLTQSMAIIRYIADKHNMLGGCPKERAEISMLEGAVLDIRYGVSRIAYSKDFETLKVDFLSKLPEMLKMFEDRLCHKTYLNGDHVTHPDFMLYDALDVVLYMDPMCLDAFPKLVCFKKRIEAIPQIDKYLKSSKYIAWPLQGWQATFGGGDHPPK
Protocol: (§1) Part C. Total: autoradiogram of the translated, [³⁵S]-methionine labeled TLN constructs used for the binding reaction. Similar amounts of input material are used. Note the tendency of the intracellular domain (IC) to oligomerize.
(§2) Part D. Mapping of the binding domain of TLN. […] Radiolabeled translated products (Total) were assayed for binding to GST-PS1/39C (third panel), GST-PS1/1-81N (fourth panel) or GST alone (not shown). Binding becomes virtually abolished when the N-terminal 5 amino acids (Val⁸²⁹-Trp⁸³³) of the transmembrane region of TLN are deleted (construct 8 in top panel).

GST-PS1/1-81N [2] = biological target: T3, GST-PS1/1-81N (UniProt P49768 1-81); assay: as above
T3 construct: range 1-81; Lacks the first transmembrane domain of PS1; also called PS1 N-terminus fused to GST; GST-fused with the N-terminus of PS1; not shown: glutathione S-transferase (GST) encoded by vector pGEX4T-1 (Pharmacia Biotech)
Protocol: as §1, §2

[3] = biological target: T4, TLN/256C clone of the pAD-GAL4 mouse hippocampal two-hybrid library (mouse, UniProt Q60625 662-917); assay: yeast two-hybrid screen, His+ selection and β-galactosidase filter lift
T4 sequence (looked up): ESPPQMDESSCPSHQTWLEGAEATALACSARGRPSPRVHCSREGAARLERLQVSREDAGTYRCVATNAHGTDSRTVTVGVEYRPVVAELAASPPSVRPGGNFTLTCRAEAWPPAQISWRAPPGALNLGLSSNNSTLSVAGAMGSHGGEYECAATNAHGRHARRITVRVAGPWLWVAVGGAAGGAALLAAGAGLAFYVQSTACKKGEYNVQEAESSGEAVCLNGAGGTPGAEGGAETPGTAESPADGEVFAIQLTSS
Text: Endogenous TLN could be precipitated from Triton X-100 brain extracts using recombinant GST fusion proteins containing the 39 C-terminal residues of PS1 or PS2 (PS1/39C, FIG. 1, Part B). The binding was salt dependent (FIG. 1, Part C). […] We detected a weak signal for endogenous holo-APP only after long exposure (FIG. 1, Part D). […] Although the PS1-NTF/ CTF is Triton-X100 sensitive, minor amounts of PS1-NTF were also detected in precipitates of Triton-X100-extracted membranes. In the presence of 2% CHAPS however, both PS1-NTF and PS1-CTF were recovered on the beads as both fragments remain non-covalently bound under these conditions (Capell et al., 1998). […] Since CHAPS is less denaturing than TX100, it is possible that other proteins of the complex cause steric hindrance under these conditions (Capell et al., 1998).
Mouse hippocampal mRNA was used to generate a primary lambda library that was converted to a pAD-GAL4 plasmid library by in vivo mass excision (HybriZAP, Stratagene). The sequence coding for the C-terminal eight amino acids of PS1 was cloned into the pBD-GAL4 vector. Yeast was transformed simultaneously with the bait and the library plasmids using the lithium-acetate method (Gietz et al., 1995). His⁺ colonies were restreaked onto selection agar plates and assayed for lacZ gene expression by the β-galactosidase filter lift assay.

GST-PS1/1-81N [4] = biological target: T3, GST-PS1/1-81N; assay: GST pull-down of [35S]-labeled C-terminal APP-stubs expressed in neurons
GST alone [5] = biological target: T2, GST alone; assay: GST pull-down of [35S]-labeled C-terminal APP-stubs expressed in neurons; data not shown

B1: ductin (endogenous, mouse brain extract) (other, UniProt P63082 1-155, looked up)
chain: MADIKNNPEYSSFFGVMGASSAMVFSAMGAAYGTAKSGTGIAAMSVMRPELIMKSIIPVVMAGIIAIYGLVVAVLIANSLTDGITLYRSFLQLGAGLSVGLSGLAAGFAIGIVGDAGVRGTAQQPRLFVGMILILIFAEVLGLYGLIVALILSTK
B1: no binding (GST-TLN/256C).

B2: intracellular domain (IC) of TLN (in vitro translated) (other, mouse, UniProt Q60625 855-917, looked up)
chain: AFYVQSTACKKGEYNVQEAESSGEAVCLNGAGGTPGAEGGAETPGTAESPADGEVFAIQLTSS
notes: domain: intracellular domain (IC); also called IC domain of TLN
B2: no binding (GST alone [1]); no binding (GST-PS1/1-81N [2]).

B3: PS1-C8 bait (C-terminal eight amino acids of PS1 in pBD-GAL4) (other, UniProt P04386 1-147, looked up)
chain: MKLLSSIEQACDICRLKKLKCSKEKPKCAKCLKNNWECRYSPKTKRSPLTRAHLTEVESRLERLEQLFLLIFPREDLDMILKMDSLQDIKALLTGLFVQDNVNKDAVTDRLASVETDMPLTLRQHRISATSSSEESSNKGQRQLTVSLAFHQFYI
B3: binds [3].

B4: BAP31 (endogenous, mouse brain extract) (other, UniProt Q61335 2-245, looked up)
chain: SLQWTTVATFLYAEVFAVLLLCIPFISPKRWQKVFKSRLVELVVTYGNTFFVVLIVILVLLVIDAVREILKYDDVTEKVNLQNNPGAMEHFHMKLFRAQRNLYIAGFSLLLSFLLRRLVTLISQQATLLASNEAFKKQAESASEAAKKYMEENDQLKKGAAEDGDKLDIGNTEMKLEENKSLKNDLRKLKDELASTKKKLEKAENEALAMQKQSEGLTKEYDRLLEEHAKLQASVRGPSVKKEE
B4: no binding (GST-TLN/256C).

B5: APP-C59 (other, UniProt P05067 712-770, looked up)
chain: IATVIVITLVMLKKKQYTSIHHGVVEVDAAVTPEERHLSKMQQNGYENPTYKFFEQMQN
notes: domain: γ40-cleaved C-terminal fragment (APP-C59); also called γ40-cleaved cytoplasmic domain of APP
B5: no binding (GST-PS1/1-81N [4]); no binding (GST alone [5]).
